Measurements: patent publication US20260347491 (published 2026)
Read-outs that look alike come from different tables or passages of the source. One block for each binder: values may come before it.

Experiments:
[1] = target: T1, human CD32b (FcgRIIb) (human, UniProt P31994); experiment: FACS, CHOS-hCD32b cells
T1 chain: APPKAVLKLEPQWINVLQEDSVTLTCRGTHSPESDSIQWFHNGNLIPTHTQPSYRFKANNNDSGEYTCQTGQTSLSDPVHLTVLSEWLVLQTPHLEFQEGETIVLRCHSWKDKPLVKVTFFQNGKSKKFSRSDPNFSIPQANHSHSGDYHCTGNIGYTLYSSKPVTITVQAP

[2] = target: T2, human HER2 (human, UniProt P04626); experiment: FACS
[3] = target: T2, human HER2; experiment: FACS; remark: listed apart in the source
[4] = target: human 4-1BB (CD137) (human, UniProt Q07011); experiment: FACS
Chain of human 4-1BB (CD137) (Q07011 24-186): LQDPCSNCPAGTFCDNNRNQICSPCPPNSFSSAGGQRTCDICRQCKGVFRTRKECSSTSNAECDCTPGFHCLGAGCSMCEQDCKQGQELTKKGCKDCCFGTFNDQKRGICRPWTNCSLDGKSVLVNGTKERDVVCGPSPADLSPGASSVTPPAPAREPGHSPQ

- EC50 [1]: 1.06 nM
B1: HER2xHER2x4-1BB-1 (full) (antibody)
chain 1: not shown
chain 2: DIQMTQSPSSLSASVGDRVTITCRASQSVQGAVAWYQQKPGKAPKLLIYSASFLYSGVPSRFSGSRSGTDFTLTISSLQPEDFATYYCQQHSTTPPTFGQGTKVEIKRTVAAPSVFIFPPSDEQLKSGRASVVCLLNNFYPREAKVQWKVDNALQSGNSQESVTEQDSKDSTYSLSSRLQLSKADYEKHKVYACEVTHQGLSSPVTKSFNRGEC
chain 3: not shown
chain 4: DIQMTQSPSSLSASVGDRVTITCKASQDVSIGVAWYQQKPGKAPKLLIYSASYRYTGVPSRFSGSGSGTDFTLTISSLQPEDFATYYCQQYYIYPYTFGQGTKVEIKRTVAAPSVFIFPPSDEELKSGTASVQCLLNNFYPREAKVQWKVDNALQSGNSQESVTEQDSKDSTYSLSSELTLSKADYEKHKVYACEVTHQGLSSPVTKSFNRGEC

- EC50 [2]: 2.88 nM
- EC50 [3]: 1.81 nM
B2: HER2xHER2x4-1BB-2 (both HER2 arms) (antibody)
chain 1: not shown
chain 2: not shown
chain 3: EVQLVESGGGLVQPGGSLRLSCAASGFTFTDYTMDWVRQAPGKGLEWVADVNPNSGGSIYNQRFKGRFTLSVDRSKNTLYLQMNSLRAEDTAVYYCARNLGPSFYFDYWGQGTLVTVSS
chain 4: DIQMTQSPSSLSASVGDRVTITCKASQDVSIGVAWYQQKPGKAPKLLIYSASYRYTGVPSRFSGSGSGTDFTLTISSLQPEDFATYYCQQYYIYPYTFGQGTKVEIK

- EC50 [2]: 2.65 nM
- EC50 [3]: 1.82 nM
B3: HER2xHER2x4-1BB-1 (both HER2 arms) (antibody)
chain 1: not shown
chain 2: DIQMTQSPSSLSASVGDRVTITCRASQSVQGAVAWYQQKPGKAPKLLIYSASFLYSGVPSRFSGSRSGTDFTLTISSLQPEDFATYYCQQHSTTPPTFGQGTKVEIK
chain 3: B2 chain 3
chain 4: B2 chain 4

- binding result [4]: no binding
B4: Pertuzumab (antibody, V domains shown)
VH: B2 chain 3
VL: B2 chain 4
